Test results reported in PMC2173303.

Biological target: HSF1 (Homo sapiens, UniProt Q00613 1-529)
Assay: EMSA

Sequence of HSF1 (Q00613 whole entry): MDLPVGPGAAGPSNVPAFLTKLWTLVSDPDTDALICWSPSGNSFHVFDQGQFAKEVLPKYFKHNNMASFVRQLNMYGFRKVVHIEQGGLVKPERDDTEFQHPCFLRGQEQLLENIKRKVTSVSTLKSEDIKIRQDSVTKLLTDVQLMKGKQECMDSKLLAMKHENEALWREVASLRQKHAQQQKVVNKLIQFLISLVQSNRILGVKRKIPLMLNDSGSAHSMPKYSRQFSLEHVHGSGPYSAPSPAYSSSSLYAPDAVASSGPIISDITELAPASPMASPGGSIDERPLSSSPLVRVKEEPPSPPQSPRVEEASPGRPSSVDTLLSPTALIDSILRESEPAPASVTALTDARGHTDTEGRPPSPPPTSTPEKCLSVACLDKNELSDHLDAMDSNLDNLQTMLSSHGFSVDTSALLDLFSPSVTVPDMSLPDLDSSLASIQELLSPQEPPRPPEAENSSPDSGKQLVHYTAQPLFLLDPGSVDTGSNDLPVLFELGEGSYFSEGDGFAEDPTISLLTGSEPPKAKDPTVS

B1: HSE probe (dsDNA)
DNA 1: TCGGCTGGAATATTCCCGACCTGGCAGCCGA
DNA 2: TCGGCTGCCAGGTCGGGAATATTCCAGCCGA
binding result: binds
